Columns and labels:
(PR)15: H-C(PR)15-OH = biological target: T1, (PR)15: H-C(PR)15-OH; experiment: indirect ELISA, coated peptide
T1 construct: synthetic, not coupled to BSA; also called poly-PR DPR protein peptide
T1 peptide: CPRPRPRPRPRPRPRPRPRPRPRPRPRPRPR
Experimental: (§1) In brief, dipeptide repeat proteins were synthesized and purified by Schafer-N(Copenhagen, Denmark): (GA)₁₅: H-CHHHHHH(GA)₁₅-OH; (GP)₁₅: H-C(GP)₁₅-OH; (GR)₁₅: H-C(GR)₁₅-OH; (PA)₁₅: H-C(PA)₁₅-OH; (PR)₁₅: H—C(PR)₁₅-OH. 96-well microplates (Corning Incorporated, Corning, USA) were coated with dipeptide repeat protein peptides at a concentration of either 5 μg/ml or 20 μg/ml in coating buffer (15 mM Na₂CO₃, 35 mM NaHCO₃, pH 9.42). Non-specific binding sites were blocked for 1 h at room temperature with PBS/0.1% Tween®-20 containing 2% BSA (Sigma-Aldrich, Buchs, Switzerland). Primary antibodies were diluted to the indicated concentrations and incubated for 1 h at room temperature, followed by incubation with a donkey anti-human IgG Fcγ-specific antibody conjugated with HRP (Jackson ImmunoResearch Laboratories, Inc., West Grove, USA). Binding was determined by measurement of HRP activity in a standard colorimetric assay. EC₅₀ values were estimated by non-linear regression using GraphPad Prism software (San Diego, USA). The binding specificity and EC₅₀ of human-derived antibodies for C9orf72 dipeptide repeat protein peptides (GA)₁₅, (GP)₁₅, (GR)₁₅, (PA)₁₅ and (PR)₁₅ were determined by indirect ELISA.

(GR)15: H-C(GR)15-OH = biological target: T2, (GR)15: H-C(GR)15-OH; experiment: indirect ELISA, coated peptide
T2 construct: synthetic, not coupled to BSA; also called poly-GR DPR protein peptide
T2 peptide: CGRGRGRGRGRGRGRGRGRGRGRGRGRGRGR
Experimental: as §1

(PA)15: H-C(PA)15-OH = biological target: T3, (PA)15: H-C(PA)15-OH; experiment: indirect ELISA, coated peptide
T3 construct: synthetic, not coupled to BSA; also called poly-PA DPR protein peptide
T3 peptide: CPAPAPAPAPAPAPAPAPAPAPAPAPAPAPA
Experimental: as §1

(GP)15: H-C(GP)15-OH = biological target: T4, (GP)15: H-C(GP)15-OH; experiment: indirect ELISA, coated peptide
T4 construct: synthetic, not coupled to BSA; also called poly-GP DPR protein peptide
T4 peptide: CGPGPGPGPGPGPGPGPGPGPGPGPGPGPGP
Experimental: as §1

[1] = biological target: T5, transactive response DNA binding protein 43 (UniProt Q13148 1-414, limits assumed); experiment: indirect ELISA, coated protein
T5 construct: also called TDP-43
T5 sequence (Q13148 whole entry): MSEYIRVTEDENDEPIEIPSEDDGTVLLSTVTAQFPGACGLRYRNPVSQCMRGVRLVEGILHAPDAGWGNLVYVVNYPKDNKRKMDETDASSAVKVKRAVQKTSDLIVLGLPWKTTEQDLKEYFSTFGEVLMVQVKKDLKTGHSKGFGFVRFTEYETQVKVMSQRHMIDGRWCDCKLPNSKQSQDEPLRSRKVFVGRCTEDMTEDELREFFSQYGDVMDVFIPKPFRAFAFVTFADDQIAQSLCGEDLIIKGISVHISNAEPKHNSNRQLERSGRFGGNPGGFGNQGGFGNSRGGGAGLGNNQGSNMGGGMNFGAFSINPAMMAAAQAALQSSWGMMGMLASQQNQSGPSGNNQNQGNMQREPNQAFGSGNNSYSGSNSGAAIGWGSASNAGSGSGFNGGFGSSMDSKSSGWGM
Experimental: (§2) 96-well microplates (Corning) were coated with different target proteins at a concentration of 1-10 μg/ml in coating buffer (15 mM Na₂CO₃, 35 mM NaHCO₃, pH 9.42). Non-specific binding sites were blocked for 1 h at RT with PBS/0.1% Tween®-20 containing 2% BSA (Sigma-Aldrich, Buchs, Switzerland). […] Binding was determined using donkey anti-human IgG Fcγ-specific antibody conjugated with HRP (Jackson ImmunoResearch Laboratories, Inc., West Grove, USA) followed by measurement of HRP activity in a standard colorimetric assay. Signals for target protein were calculated in fold increase above median.

Tau = Tau (UniProt P10636-8 1-441, limits assumed); experiment: indirect ELISA, coated protein
Sequence of Tau (P10636 other isoform, or with tags, fused parts or gaps limits assumed): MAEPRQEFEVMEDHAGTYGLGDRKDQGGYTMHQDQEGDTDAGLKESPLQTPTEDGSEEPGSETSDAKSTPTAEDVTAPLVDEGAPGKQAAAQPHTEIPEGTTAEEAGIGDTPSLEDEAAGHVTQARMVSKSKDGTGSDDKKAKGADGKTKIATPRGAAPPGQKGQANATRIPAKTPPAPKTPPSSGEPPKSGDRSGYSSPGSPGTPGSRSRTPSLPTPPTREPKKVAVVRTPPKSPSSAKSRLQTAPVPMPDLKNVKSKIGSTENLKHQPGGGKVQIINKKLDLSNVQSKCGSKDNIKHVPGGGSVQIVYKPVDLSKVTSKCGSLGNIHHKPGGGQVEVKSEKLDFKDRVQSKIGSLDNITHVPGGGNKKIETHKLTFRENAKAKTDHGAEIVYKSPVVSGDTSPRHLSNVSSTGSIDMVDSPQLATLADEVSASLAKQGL
Experimental: as §2

[2] = biological target: T6, full-length amyloid precursor protein (UniProt P05067 18-770, limits assumed); experiment: indirect ELISA, coated protein
T6 construct: also called flAPP
T6 sequence (P05067 18-770 limits assumed): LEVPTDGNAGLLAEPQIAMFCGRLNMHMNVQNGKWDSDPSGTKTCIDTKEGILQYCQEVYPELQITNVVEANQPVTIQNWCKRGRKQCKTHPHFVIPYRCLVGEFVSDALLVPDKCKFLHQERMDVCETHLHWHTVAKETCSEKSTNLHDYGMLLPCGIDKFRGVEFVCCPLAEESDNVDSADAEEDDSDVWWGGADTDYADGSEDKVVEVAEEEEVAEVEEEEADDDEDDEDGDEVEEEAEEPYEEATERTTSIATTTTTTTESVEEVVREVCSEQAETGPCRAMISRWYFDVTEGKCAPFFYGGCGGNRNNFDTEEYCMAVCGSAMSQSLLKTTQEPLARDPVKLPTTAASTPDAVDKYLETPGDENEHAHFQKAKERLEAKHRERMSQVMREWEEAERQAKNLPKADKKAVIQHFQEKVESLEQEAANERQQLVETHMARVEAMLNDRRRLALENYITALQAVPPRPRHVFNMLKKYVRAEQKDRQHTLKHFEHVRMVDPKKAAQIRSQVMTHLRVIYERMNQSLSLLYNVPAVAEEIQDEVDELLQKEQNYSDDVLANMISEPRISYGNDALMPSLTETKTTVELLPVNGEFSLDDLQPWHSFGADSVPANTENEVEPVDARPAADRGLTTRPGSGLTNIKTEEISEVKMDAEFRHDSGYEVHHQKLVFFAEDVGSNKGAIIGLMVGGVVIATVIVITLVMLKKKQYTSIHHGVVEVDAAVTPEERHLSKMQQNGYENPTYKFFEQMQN
Experimental: as §2

transthyrethin = transthyrethin (UniProt P02766 21-147); experiment: indirect ELISA, coated protein
Experimental: as §2

GA20: H-(GA)20HHHHHH-NH2 = biological target: T7, GA20: H-(GA)20HHHHHH-NH2 (C-terminal amide); experiment: indirect ELISA, coated His-tagged peptide
T7 peptide: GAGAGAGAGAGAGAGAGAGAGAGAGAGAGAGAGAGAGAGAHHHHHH
Source text: In brief, dipeptide repeat proteins were synthesized and purified by Schafer-N (Copenhagen, Denmark): GA₂₀: H-(GA)₂₀HHHHHH-NH₂; GA₁₀: H-(GA)₁₀HHHHHH-NH₂; GA₆: H-(GA)₆HHHHHH-NH₂; GA₅: H-(GA)₅HHHHHH-NH₂; GA₄: H-(GA)₄HHHHHH-NH₂; GA₃: H-(GA)₃HHHHHH-NH₂; GA₂: H-(GA)₂HHHHHH-NH₂; GP₂₀: H-(GP)₂₀HHHHHH-NH₂; GP₁₀: H-(GP)₁₀HHHHHH-NH₂; GP₆: H-(GP)₆HHHHHH-NH₂; GP₅: H-(GP)₅HHHHHH-NH₂; GP₄: H-(GP)₄HHHHHH-NH₂; GP₃: H-(GP)₃HHHHHH-NH₂; GP₂: H-(GP)₂HHHHHH-NH₂. GR₂₀: H-(GR)₂₀HHHHHH-NH₂; GR₁₀: H-(GR)₁₀HHHHHH-NH₂; GR₆: H-(GR)₆HHHHHH-NH₂; GR₅: H-(GR)₅HHHHHH-NH₂; GR₄: H-(GR)₄HHHHHH-NH₂; GR₃: H-(GR)₃HHHHHH-NH₂; GR₂: H-(GR)₂HHHHHH-NH₂; PA₂₀: H-(PA)₂₀HHHHHH-NH₂; PA₁₀: H-(PA)₁₀HHHHHH-NH₂; PA₆: H-(PA)₆HHHHHH-NH₂; PA₅: H-(PA)₅HHHHHH-NH₂; PA₄: H-(PA)₄HHHHHH-NH₂; PA₃: H-(PA)₃HHHHHH-NH₂; PA₂: H-(PA)₂HHHHHH-NH₂; PR₂₀: H-(PR)₂₀HHHHHH-NH₂; PR₁₀: H-(PR)₁₀HHHHHH-NH₂; PR₆: H-(PR)₆HHHHHH-NH₂; PR₅: H-(PR)₅HHHHHH-NH₂; PR₄: H-(PR)₄HHHHHH-NH₂; PR₃: H-(PR)₃HHHHHH-NH₂; PR₂: H-(PR)₂HHHHHH-NH₂. 96-well microplates (Corning Incorporated, Corning, USA) were coated with dipeptide repeat protein peptides at a concentration of 50 μg/ml in coating buffer (15 mM Na₂CO₃, 35 mM NaHCO₃, pH 9.42). Non-specific binding sites were blocked for 1 h at room temperature with PBS/0.1% Tween®-20 containing 2% BSA (Sigma-Aldrich, Buchs, Switzerland). Primary antibodies were diluted to the indicated concentrations and incubated 1 h at room temperature, followed by incubation with a donkey anti-human IgG Fcγ-specific antibody conjugated with HRP (Jackson ImmunoResearch Laboratories, Inc., West Grove, USA). Binding was determined by measurement of HRP activity in a standard colorimetric assay. EC₅₀ values were estimated by non-linear regression using GraphPad Prism software (San Diego, USA).

[3] = biological target: T8, (GA)15: H-CHHHHHH(GA)15-OH; experiment: indirect ELISA, coated uncoupled peptide
T8 construct: synthetic, not coupled to BSA; also called poly-GA DPR protein peptide
T8 peptide: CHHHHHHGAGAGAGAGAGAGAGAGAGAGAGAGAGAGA
Experimental: as §1

B1: NI-308.18F7 (antibody, V domains shown)
VH: QVQLQESGPGLVKPSETLSVTCTVSGGSINDYYWNWIRQPAGKGLEWIGRIYASGTINYNPSLQSRVTMSIDTSKNQFSLDLISVSAADTAVYYCARWGQVVGDYYYGMDVWGQGTTVTVSS
VL: EIVLTQSPLSLSVTPGEPASISCKSSQSLQHTNGYNYLDWYLLKPGQSPQLLIFLTSNRASGVPDRFSGSGSGTNFTLKISRVEAEDVGVYYCMEGIQLWTFGQGTKLEIK
notes: Recombinant complete human IgG1, kappa
(PR)15: H-C(PR)15-OH
  binding result: no binding
(GR)15: H-C(GR)15-OH
  binding result: no binding
(PA)15: H-C(PA)15-OH
  binding result: no binding
(GP)15: H-C(GP)15-OH
  binding result: no binding
[1]
  binding result: no binding (tested: 20 nM)
Tau
  binding result: no binding (tested: 20 nM)
[2]
  binding result: no binding (tested: 20 nM)
transthyrethin
  binding result: no binding (tested: 20 nM)
GA20: H-(GA)20HHHHHH-NH2
  EC50: 0.83 nM
[3]
  EC50: 1.5 nM
